Experimental data: patent publication US20190060431A1 (IMMATICS BIOTECHNOLOGIES, published 2019)
Where no end group is shown, it is not given here. [ ]: non-standard residue; d: D form. pT = C[C@@H](OP(=O)(O)O)[C@H](N)C(=O)O

How the values were obtained:
[1] = target: T1, HLA-A*02:01 (human); experiment: UV-ligand exchange, anti-β2m ELISA; grade of peptide exchange yield (legend: ≥50 = +++)
T1 construct: MHC class I monomer in the UV-ligand exchange assay, captured on streptavidin plates; also called peptide-receptive MHC molecules
Description: (§1) Candidate peptides for T cell based therapies according to the present invention were further tested for their MHC binding capacity (affinity). The individual peptide-MHC complexes were produced by UV-ligand exchange, where a UV-sensitive peptide is cleaved upon UV-irradiation, and exchanged with the peptide of interest as analyzed. Only peptide candidates that can effectively bind and stabilize the peptide-receptive MHC molecules prevent dissociation of the MHC complexes. To determine the yield of the exchange reaction, an ELISA was performed based on the detection of the light chain (β2m) of stabilized MHC complexes. The assay was performed as generally described in Rodenko et al. (Rodenko et al., 2006).
(§2) 96 well MAXISorp plates (NUNC) were coated over night with 2 ug/ml streptavidin in PBS at room temperature, washed 4× and blocked for 1 h at 37° C. in 2% BSA containing blocking buffer. Refolded HLA-A*02:01/MLA-001 monomers served as standards, cov-ering the range of 15-500 ng/ml. Peptide-MHC monomers of the UV-exchange reaction were diluted 100-fold in blocking buffer. Samples were incubated for 1 h at 37° C., washed four times, incubated with 2 ug/ml HRP conjugated anti-β2m for 1 h at 37° C., washed again and detected with TMB solution that is stopped with NH2SO4. Absorp-tion was measured at 450 nm. Candidate peptides that show a high exchange yield (preferably higher than 50%, most preferred higher than 75%) are generally preferred for a generation and production of antibodies or fragments thereof, and/or T cell receptors or fragments thereof, as they show sufficient avidity to the MHC molecules and prevent dissociation of the MHC complexes.

[2] = target: T1, HLA-A*02:01; experiment: UV-ligand exchange, anti-β2m ELISA; grade of peptide exchange yield (legend: ≥20% = ++)
Description: as §1, §2

[3] = target: T1, HLA-A*02:01; experiment: UV-ligand exchange, anti-β2m ELISA; grade of peptide exchange yield (legend: ≥75% = ++++)
Description: as §1, §2

For KMPEHISTV [KMPEHISTV (SEQ ID NO: 1, CILP)], which peptide exchange yield [1] is on record?
Its peptide exchange yield is 50 to 75%.

With GLLPTSVSPRV [GLLPTSVSPRV (SEQ ID NO: 11, SCUBE2)] as the binder, how does the peptide exchange yield [2] read?
Its peptide exchange yield is 20 to 50%.

KAFPFYNTV [KAFPFYNTV (SEQ ID NO: 12, NAIP)] was tested. Which peptide exchange yield [2] did it give?
The peptide exchange yield was 20 to 50%.

With KLYEGIPVL [KLYEGIPVL (SEQ ID NO: 13, NEK10)] as the binder, how does the peptide exchange yield [2] read?
Its peptide exchange yield is 20 to 50%.

Which peptide exchange yield [1] does the source give for KQLELELEV [KQLELELEV (SEQ ID NO: 14, MUC6)] here?
The peptide exchange yield was 50 to 75%.

For SLFPSLVVV [SLFPSLVVV (SEQ ID NO: 15, PLEC)], which peptide exchange yield [1] is on record?
Its peptide exchange yield is 50 to 75%.

How did the peptide exchange yield [3] turn out when SMMGLLTNL [SMMGLLTNL (SEQ ID NO: 16, ESR1)] was run?
Its peptide exchange yield is at least 75%.

Which peptide exchange yield [2] does the source give for TIASSIEKA [TIASSIEKA (SEQ ID NO: 17, STPG2)] here?
The peptide exchange yield was 20 to 50%.

With YILLQSPQL [YILLQSPQL (SEQ ID NO: 18, MUC6)] as the binder, how does the peptide exchange yield [1] read?
The peptide exchange yield was 50 to 75%.

With ALEEQLHQV [ALEEQLHQV (SEQ ID NO: 19, KRT25, KRT28, KRT27)] as the binder, how does the peptide exchange yield [2] read?
The peptide exchange yield was 20 to 50%.

Which peptide exchange yield [1] does the source give for FSFPVSVGV [FSFPVSVGV (SEQ ID NO: 20, DUSP4)] here?
Its peptide exchange yield is 50 to 75%.

For ALAGSSPQV [ALAGSSPQV (SEQ ID NO: 2, CNTD2)], which peptide exchange yield [1] is on record?
Its peptide exchange yield is 50 to 75%.

SLLTEPALV [SLLTEPALV (SEQ ID NO: 21, TBC1D9)] was tested. Which peptide exchange yield [1] did it give?
Its peptide exchange yield is 50 to 75%.

Which peptide exchange yield [1] does the source give for YIDGLESRV [YIDGLESRV (SEQ ID NO: 22, CREB3L4)] here?
The peptide exchange yield was 50 to 75%.

SLADAVEKV [SLADAVEKV (SEQ ID NO: 23, CCDC122)] was tested. Which peptide exchange yield [1] did it give?
The peptide exchange yield was 50 to 75%.

With GLLGFQAEA [GLLGFQAEA (SEQ ID NO: 24, MAGED1)] as the binder, how does the peptide exchange yield [3] read?
The peptide exchange yield was at least 75%.

How did the peptide exchange yield [2] turn out when ILFDVVVFL [ILFDVVVFL (SEQ ID NO: 25, C4orf3)] was run?
The peptide exchange yield was 20 to 50%.

SLAWDVPAA [SLAWDVPAA (SEQ ID NO: 26, FASN)] was tested. Which peptide exchange yield [1] did it give?
Its peptide exchange yield is 50 to 75%.

With SLAEPRVSV [SLAEPRVSV (SEQ ID NO: 27, FASN)] as the binder, how does the peptide exchange yield [1] read?
Its peptide exchange yield is 50 to 75%.

Which peptide exchange yield [3] does the source give for SLFSVPFFL [SLFSVPFFL (SEQ ID NO: 28, TM9SF1)] here?
The peptide exchange yield was at least 75%.

How did the peptide exchange yield [1] turn out when ALEA[pT]QLYL [ALEAUQLYL (SEQ ID NO: 29, DEPDC4)] was run?
The peptide exchange yield was 50 to 75%.

With FLSSEAANV [FLSSEAANV (SEQ ID NO: 30, TNFAIP2)] as the binder, how does the peptide exchange yield [2] read?
Its peptide exchange yield is 20 to 50%.

With SLVEGEAVHLA [SLVEGEAVHLA (SEQ ID NO: 4, TFAP2E, TFAP2A, TFAP2B, TFAP2C)] as the binder, how does the peptide exchange yield [2] read?
The peptide exchange yield was 20 to 50%.

For GLSYIYNTV [GLSYIYNTV (SEQ ID NO: 31, COG6)], which peptide exchange yield [2] is on record?
The peptide exchange yield was 20 to 50%.

GLVATLQSL [GLVATLQSL (SEQ ID NO: 32, IFI6)] was tested. Which peptide exchange yield [1] did it give?
Its peptide exchange yield is 50 to 75%.

With ILTELPPGV [ILTELPPGV (SEQ ID NO: 33, ZNF407)] as the binder, how does the peptide exchange yield [2] read?
The peptide exchange yield was 20 to 50%.

For SLLSEIQAL [SLLSEIQAL (SEQ ID NO: 35, AKAP9, PCNT)], which peptide exchange yield [3] is on record?
Its peptide exchange yield is at least 75%.

How did the peptide exchange yield [3] turn out when TLLGLAVNV [TLLGLAVNV (SEQ ID NO: 36, CHPT1)] was run?
The peptide exchange yield was at least 75%.

Which peptide exchange yield [3] does the source give for LLM[pT]VAGLKL [LLMUVAGLKL (SEQ ID NO: 38, PCNXL3)] here?
The peptide exchange yield was at least 75%.

For KLLDMELEM [KLLDMELEM (SEQ ID NO: 39, FAH)], which peptide exchange yield [3] is on record?
Its peptide exchange yield is at least 75%.

With SLNDQGYLL [SLNDQGYLL (SEQ ID NO: 41, MCM8)] as the binder, how does the peptide exchange yield [1] read?
The peptide exchange yield was 50 to 75%.

Which peptide exchange yield [3] does the source give for FLVEHVLTL [FLVEHVLTL (SEQ ID NO: 42, SLC39A6)] here?
The peptide exchange yield was at least 75%.

FLDEEVKLI [FLDEEVKLI (SEQ ID NO: 43, FTL)] was tested. Which peptide exchange yield [1] did it give?
Its peptide exchange yield is 50 to 75%.

Which peptide exchange yield [2] does the source give for ALNPVIYTV [ALNPVIYTV (SEQ ID NO: 5, DRD4)] here?
The peptide exchange yield was 20 to 50%.

How did the peptide exchange yield [1] turn out when ALTALQNYL [ALTALQNYL (SEQ ID NO: 6, TFAP2B)] was run?
Its peptide exchange yield is 50 to 75%.

FIIPTVATA [FIIPTVATA (SEQ ID NO: 7, ABCC11)] was tested. Which peptide exchange yield [3] did it give?
The peptide exchange yield was at least 75%.

Which peptide exchange yield [3] does the source give for GLVQSLTSI [GLVQSLTSI (SEQ ID NO: 8, ABCC11)] here?
Its peptide exchange yield is at least 75%.

Which peptide exchange yield [1] does the source give for FMSKLVPAI [FMSKLVPAI (SEQ ID NO: 9, TPRG1)] here?
Its peptide exchange yield is 50 to 75%.

For GLHSLPPEV [GLHSLPPEV (SEQ ID NO: 10, LRRC8E)], which peptide exchange yield [1] is on record?
Its peptide exchange yield is 50 to 75%.
